This assay concerns the target His6x-tagged hRNF145 RING protein (human) (UniProt Q96MT1). In words: SEC; Superdex 75 10/300 column calibrated with a set of standard proteins; elution volume corresponds to an apparent molecular mass of 39 kDa (predicted weight 18 kD).

The values below come from article PMC5322959.

The term stoichiometry N denotes the number of molecules, sites or subunits per partner or assembly. As for “His6x-tagged hRNF145 RING protein (from UniProt Q96MT1-1 550-663) (domain or fragment)”, the stoichiometry N is 2.
